# Results: US20260009052, “CAS12 PROTEINS AND USES THEREOF” (GUANGZHOU REFORGENE MEDICINE CO., LTD., published 2026)
# Substitutions are numbered along the chain they refer to.
# B1: C12-279 Reporter3 sgRNA ; Reporter3 target (ssRNA ; dsDNA)
# RNA: GUAAUGCGUCUCCCAUUGACGCCUCACCUCGCGACGCAAUGAUG
# DNA 1: CTCACCTCGCGACGCAATGATG
# DNA 2: CATCATTGCGTCGCGAGGTGAG
# What was measured:
# [1] = target: T1, C12-279 G989R (synthetic construct, G989R); assay: cell_activity; PAM TTG; +/-0.2
# T1 chain: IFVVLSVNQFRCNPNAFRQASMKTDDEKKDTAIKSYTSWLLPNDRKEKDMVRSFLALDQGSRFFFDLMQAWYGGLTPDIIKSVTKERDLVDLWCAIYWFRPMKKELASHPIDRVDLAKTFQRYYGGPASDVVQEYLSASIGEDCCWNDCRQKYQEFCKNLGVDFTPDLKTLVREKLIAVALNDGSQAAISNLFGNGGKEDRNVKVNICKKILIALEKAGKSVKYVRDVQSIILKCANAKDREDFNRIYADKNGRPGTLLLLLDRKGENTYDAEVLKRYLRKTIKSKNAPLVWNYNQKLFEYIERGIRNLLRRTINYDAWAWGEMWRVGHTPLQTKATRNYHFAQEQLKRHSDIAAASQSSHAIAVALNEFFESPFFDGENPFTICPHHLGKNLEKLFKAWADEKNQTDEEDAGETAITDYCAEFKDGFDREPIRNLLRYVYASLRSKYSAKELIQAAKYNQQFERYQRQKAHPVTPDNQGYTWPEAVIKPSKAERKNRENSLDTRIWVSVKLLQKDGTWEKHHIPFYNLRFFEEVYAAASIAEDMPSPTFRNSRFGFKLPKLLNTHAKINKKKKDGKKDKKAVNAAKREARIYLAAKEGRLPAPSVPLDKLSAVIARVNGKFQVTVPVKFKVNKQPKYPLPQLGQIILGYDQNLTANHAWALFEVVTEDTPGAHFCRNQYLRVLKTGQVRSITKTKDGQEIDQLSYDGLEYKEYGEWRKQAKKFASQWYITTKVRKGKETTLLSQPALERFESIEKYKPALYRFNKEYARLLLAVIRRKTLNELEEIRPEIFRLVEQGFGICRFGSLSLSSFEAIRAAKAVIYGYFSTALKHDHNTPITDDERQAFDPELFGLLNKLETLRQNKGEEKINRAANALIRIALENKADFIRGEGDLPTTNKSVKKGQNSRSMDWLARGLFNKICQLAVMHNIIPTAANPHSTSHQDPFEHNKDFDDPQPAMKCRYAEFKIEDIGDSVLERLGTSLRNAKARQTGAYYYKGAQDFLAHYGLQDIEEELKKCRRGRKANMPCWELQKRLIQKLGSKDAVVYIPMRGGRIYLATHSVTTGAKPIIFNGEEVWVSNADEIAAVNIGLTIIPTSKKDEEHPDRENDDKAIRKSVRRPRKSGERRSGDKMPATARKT
# Procedure: (§1) Transfection: transfection was performed 12-14 h after plating. 1.5 μL PEI (Yeasen Biotechnology, 40815ES03, Polyethylenimine Linear (PEI) MW25000) and 500 ng mutation clone plasmid were added to 100 μL Opti-MEM per well of the 24-well plate, mixed, and added to the NAAN cell line for cell transfection after placing at room temperature for 20 min. After overnight transfection, a fresh culture medium was replaced, and the culture was continued for 72 h, followed by flow cytometry. Editing efficiencies of different mutant clones were characterized by the proportion of GFP-positive cells.
# (§2) Editing efficiency of some selected mutants was tested in Reporter3 cell line using the same manner as described for the NAAN reporter system, except that the cell line was changed from NAAN cell line to Reporter3 cell line.
# [2] = target: T2, C12-279 Q186R (Mut-01) (synthetic construct, Q186R); assay: cell_activity; PAM TTG; +/-0.32
# T2 chain: T1 chain with Q186R, R989G
# Procedure: as §1, §2
binder,measurement,setting,value
B1,binding signal,[1],1.27 fold of C12-279
same,binding signal,[2],1.6 fold of C12-279
